This note sets out measurements from article PMC7054047.

Test [1] has as its target Ol1WSCP. Nature of the test: SEC. Background: Size exclusion chromatography separates by hydrodynamic size, large species first.
The target in test [2] is Ol1WSCP. Description: SEC. The source holds these as a separate data set.

Read-outs that look alike come from different tables or passages of the source.

Take Ol1WSCP (natural protein): the stoichiometry N in test [1] and in test [2] was 4 throughout.

One may read the stoichiometry N as the number of molecules, sites or subunits per partner or assembly.
